This note sets out measurements from publication doi:10.1101/2024.06.16.598887 (bioRxiv, 2024).

Assay [1] addresses T1, pig (Sus scrofa) skeletal muscle alpha-actin (pig (Sus scrofa), UniProt P68137 1-377). In words: ITC. (In ITC the heat of successive injections is recorded.)
The target in assay [2] is T1, pig (Sus scrofa) skeletal muscle …. As to the kind of experiment: ITC. This is another data set of the same source.

Where two headings read alike, the source gives them in different places.

B1: Anopheles gambiae actin depolymerizing factor (natural protein)
chain: MASGVTVSDVCKTTYEEIKKDKKHRYVIFYIRDEKQIDVEVIGDRNAEYDSFLEDIQKGGPGECRYGLFDFEYMHQCQGTSESSKKQKLFLMSWCPDTAKVKKKMLYSSSFDALKKSLVGVQKYIQATDLSEASREAVEEKLRATDRQ
In assay [1], B1 returned a dissociation constant Kd of 1.6 nM and a dH of -14.1 ± 0.1 kcal/mol. Also, in assay [2], the Kd amounted to 0.8 nM, the dH was -13.6 ± 0.1 kcal/mol and the “stoichiometry N” value is approximately 1.

Usually Kd stands for the concentration at which binding is half-saturated. High values mean a looser complex, low ones a tighter complex. The term stoichiometry N denotes the number of molecules, sites or subunits per partner or assembly.
